Data set [1] concerns PD-1 expression in peripheral blood. The data set is described as follows: PD-1 expression in peripheral blood after anti-CTLA-4 pre-treatment, Taqman qRT-PCR. In kind it is in vivo, human. As for the experimental part: The effect of anti-CTLA-4 antibody (tremelimumab) pre-treatment on PD-1 expression in peripheral blood was tested by Taqman qRT-PCR.
A general note: Real-time PCR tracks product formation cycle by cycle.

The subject of the next data set is PD-1 expressing T cells. Briefly: Magnetic bead enrichment (selection) of PD-1 expressing T cells with biotinylated anti-PD-1 antibody. In kind it is cell-based, human. The following applies: 4° C. As for the experimental part:
Donor blood was obtained in the form of human peripheral blood through standard leukapheresis or blood draw protocols. The red blood cells were removed from the donor blood by centrifugation protocols known in the art. Briefly, the peripheral blood was centrifuged, the supernatant discarded, the pellet was resuspended in ammonium chloride potassium (ACK) buffer, the ACK pellet suspension was incubated at room temperature, and the cells were washed twice in wash buffer to produce a cell pellet.
Enrichment of the PD-1 expressing cells was then performed. The washed cell pellet was resuspended in wash buffer and cell count determined. Wash buffer was added to bring the cell density to 100×10^6 cells per mL. 1 μg/mL MEDI3097 antibody was added to the cells to produce an antibody-cell mixture comprising cells and MEDI3097 antibody. The antibody mixture was incubated at 4° C. for 15 minutes and then centrifuged and washed twice with wash buffer. Wash buffer was added to bring cell density to 125×10^6 cells per mL. Anti-biotin beads were then added to the cells at a concentration of 2 mL beads per 1 billion cells to produce a bead mixture. […]
Enrichment of PD-1 expressing T cells was performed after red blood cells were removed from leukapheresis products. The washed cell pellet was resuspended in wash buffer and cell count determined. […]

The target of the next data set is PD-1 (Homo sapiens, UniProt Q15116). The data set is described as follows: Binding affinity of anti-PD-1 antibody.
PD-1, sequence (Q15116 25-288): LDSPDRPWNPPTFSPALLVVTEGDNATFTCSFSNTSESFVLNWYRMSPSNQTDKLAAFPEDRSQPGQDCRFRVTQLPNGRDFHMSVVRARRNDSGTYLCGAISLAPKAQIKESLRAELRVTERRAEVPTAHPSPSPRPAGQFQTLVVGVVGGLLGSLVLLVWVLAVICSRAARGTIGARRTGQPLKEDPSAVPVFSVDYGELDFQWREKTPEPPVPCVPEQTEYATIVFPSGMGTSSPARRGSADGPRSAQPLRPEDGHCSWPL

With tremelimumab: anti-CTLA-4 antibody, in data set [1] (high responder group versus <1.5 fold group, clinical trial NTC02527434), the “overall survival (OS) of patients with induced PD-1 expression” value is “improved overall survival”. The “increase PD-1 expression in peripheral blood” value in data set [1] (in a group of patients, after 9-10 days) is recorded as more than 1.5 fold.

B1: MEDI0680: anti-PD-1 antibody (antibody, V domains shown)
VH: EVQLVESGGGLVQPGGSLRLSCAASGFTFSDYGMHWVRQAPGKGLEWVAYISSGSYTIYSADSVKGRFTISRDNAKNTLYLQMSSLRAEDTAVYYCARRGYGSFYEYYFDYWGQGTTVTVSS
VL: QIVLTQSPATLSLSPGERATLSCSASSSVSYMYWYQQKPGQAPRLLIYLTSNRATGIPARFSGSGSGTDYSSTLTISSLEPEDFAVYYCQQWSSNPFTFGQGTKLEIK
On to B1, for which the “antibody concentration at which impact on PD-1 expression level plateaued” value in the data set with PD-1 expressing T cells is listed as “around 5.0 μg/mL”. For the same molecule, the binding affinity entry in the data set with PD-1 was “low binding affinity”.

B2: LO115: anti-PD-1 antibody (antibody)
heavy: EVQLVESGGGLVQPGGSLRLSCAASGFTFSDYGMHWVRQAPGKGLEWVAYISSGSYTIYSADSVKGRFTISRDNAKNSLYLQMNSLRAEDTAVYYCARRAPNSFYEYYFDYWGQGTTVTVSSASTKGPSVFPLAPSSKSTSGGTAALGCLVKDYFPEPVTVSWNSGALTSGVHTFPAVLQSSGLYSLSSVVTVPSSSLGTQTYICNVNHKPSNTKVDKRVEPKSCDKTHTCPPCPAPEFEGGPSVFLFPPKPKDTLMISRTPEVTCVVVDVSHEDPEVKFNWYVDGVEVHNAKTKPREEQYNSTYRVVSVLTVLHQDWLNGKEYKCKVSNKALPASIEKTISKAKGQPREPQVCTLPPSREEMTKNQVSLSCAVKGFYPSDIAVEWESNGQPENNYKTTPPVLDSDGSFFLVSKLTVDKSRWQQGNVFSCSVMHEALHNHYTQKSLSLSPGK
light: QIVLTQSPATLSLSPGERATLSCSASSKHTNLYWSRHMYWYQQKPGQAPRLLIYLTSNRATGIPARFSGSGSGTDFTLTISSLEPEDFAVYYCQQWSSNPFTFGQGTKLEIKRTVAAPSVFIFPPSDEQLKSGTASVVCLLNNFYPREAKVQWKVDNALQSGNSQESVTEQDSKDSTYSLSSTLTLSKADYEKHK
Consider B2, for which the binding affinity result with PD-1 is listed as “high binding affinity”.

The values are drawn from US20200199567A1, “METHODS FOR SELECTION AND EXPANSION OF T CELLS EXPRESSING PD-1” (MEDIMMUNE, LLC, priority 2018, published 2020).
